We go through three substances from patent publication US7604932B2, “Assay for tissue factor in a sample” (Haematologic Technologies, Inc., priority 2002, dated 2009).

For one series, the target named is factor VIIa (Homo sapiens, UniProt P08709). The experiment in a line: Fluorogenic TF cofactor activity assay with excess factor VIIa and D-FPR-(n-butyl)ANSN, read against the units/ml standard curve (FIG. 3). In kind it is biochemical. Here is the method: A standardized preparation of recombinant human TF with a cofactor activity of 241 units/ml (specific activity of 3906 units/milligram) was serially diluted to create stock assay standards in the range of 8 to 0.25 units/ml. One hundred microliters of each stock standard was combined with 50 microliters of 120 nM factor VIIa. Subsequently 50 microliters of 150 uM D-FPR-(n-butyl)ANSN was added and the rate of substrate hydrolysis was measured in a fluorometer at an excitation wavelength of 350 nm and an emission wavelength of 470 nm. A standard curve was generated in FIG. 3 by plotting the change in fluorescent intensity over time versus the concentration of TF (in units/ml). In a similar manner, a sample of TF (0.8 mg/ml) with an unknown amount of cofactor activity was assayed for comparison to the standard. After correcting for assay dilution, the unknown sample returned an assay value of 2803 units per milliliter, and thus a specific activity of 3504 units per milligram. Consequently, this allows for comparison of different preparations of TF using their specific activity, which is a direct indication of quality and functionality.
factor VIIa, sequence (P08709 61-212 limits assumed): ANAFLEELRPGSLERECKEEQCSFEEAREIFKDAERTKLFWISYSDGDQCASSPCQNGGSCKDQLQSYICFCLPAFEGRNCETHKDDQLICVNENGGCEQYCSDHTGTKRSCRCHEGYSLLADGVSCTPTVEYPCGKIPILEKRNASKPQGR
factor VIIa, sequence (P08709 213-466 limits assumed): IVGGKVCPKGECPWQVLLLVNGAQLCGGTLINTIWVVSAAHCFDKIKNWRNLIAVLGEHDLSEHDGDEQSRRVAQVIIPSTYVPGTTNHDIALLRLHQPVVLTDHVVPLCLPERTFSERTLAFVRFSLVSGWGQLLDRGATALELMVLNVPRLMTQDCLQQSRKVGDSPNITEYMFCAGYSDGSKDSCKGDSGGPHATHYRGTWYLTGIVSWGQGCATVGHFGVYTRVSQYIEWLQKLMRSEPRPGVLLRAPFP
factor VIIa, sequence (P13726 33-295 partner): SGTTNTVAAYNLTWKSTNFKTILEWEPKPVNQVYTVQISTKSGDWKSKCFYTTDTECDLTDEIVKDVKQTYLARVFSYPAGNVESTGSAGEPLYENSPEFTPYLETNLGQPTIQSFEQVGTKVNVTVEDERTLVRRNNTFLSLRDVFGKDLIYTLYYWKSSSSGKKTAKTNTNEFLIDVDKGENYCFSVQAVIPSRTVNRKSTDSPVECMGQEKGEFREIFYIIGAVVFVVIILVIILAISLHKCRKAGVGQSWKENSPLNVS

The next series addresses fVIIa (Homo sapiens, UniProt P08709). The experiment in a line: Fluorogenic TF assay of relipidated TF with 2 nM fVIIa and D-FPR-(n-butyl)ANSN, compared to the FIG. 2 calibration curve. As to conditions: 250 pM TF to 500 nM PCPS (75% PC, 25% PS); 2 nM fVIIa; 2 mM CaCl2, pH 7.4; 50 μM D-FPR-(n-butyl)ANSN. In kind it is biochemical. Here is the method: Concentrations of TF were varied (0-500 pM) and incubated with 2 nM fVIIa in HBS pH 7.4, containing 2 mM Calcium Chloride (CaCl2), for 10 minutes at room temperature. Next, 50 μM D-FPR-(n-butyl)ANSN was added. Substrate hydrolysis was then monitored continuously for five minutes in a fluorometer at an excitation wavelength of 350 nm and an emission wavelength of 470 nm. The rates of substrate hydrolysis were determined for each TF concentration tested. The rate of hydrolysis by 2 nM fVIIa alone was measured and subtracted from the rates observed in the presence of TF. FIG. 2 is a graph of a calibration line based on these rates of hydrolysis at various TF concentrations.
In this example the preparation for TF employed in Example 3 was relipidated into phospholipid (PCPS) vesicles, composed of 75% phosphatidylcholine (PC) and 25% phosphatidylserine (PS). Relipidated TF, 250 pM TF to 500 nM PCPS, was incubated with 2 nM fVIIa in HBS, 2 mM CaCl2 pH 7.4 for ten minutes at room temperature. Next, 50 μM D-FPR-(n-butyl)ANSN was added. Rates of hydrolysis were determined and the rate of hydrolysis by 2 nM fVIIa alone was measured and subtracted from the rates observed in the presence of TF. The net rate of hydrolysis was then compared to the FIG. 2 calibration curve.

[1] abbreviates: standardized preparation used as assay standard.

fVIIa, sequence (P08709 61-212 limits assumed): as the sequence (P08709 61-212 limits assumed) above
fVIIa, sequence (P08709 213-466 limits assumed): as the sequence (P08709 213-466 limits assumed) above
fVIIa, sequence (P13726 33-295 partner): as the sequence (P13726 33-295 partner) above

In the case of “recombinant human TF: standardized preparation of recombinant human tissue factor used as assay standard”, in the series with factor VIIa (setting [1]), the cofactor activity was 241 units/ml and the specific activity is listed as 3906 units/milligram.

Turning to “Relipidated TF: TF preparation of Example 3 relipidated into PCPS vesicles (75% phosphatidylcholine, 25% phosphatidylserine)”, in the series with fVIIa, the “TF added to the relipidation mixture expressed as functional TF” value was 35-40%. In the series with factor VIIa (TF sample 0.8 mg/ml), “sample of TF: sample of tissue factor (0.8 mg/ml) with an unknown amount of cofactor activity” yielded a specific activity of 3504 units per milligram. Besides, in the series with factor VIIa (TF sample 0.8 mg/ml, 120 nM factor VIIa stock, 150 uM D-FPR-(n-butyl)ANSN stock), the “cofactor activity, assay value after correcting for assay dilution” value turned out to be 2803 units per milliliter.
